# T1: Placenta Growth Factor (PlGF), human (human, UniProt P49763 21-149)
# T1 chain: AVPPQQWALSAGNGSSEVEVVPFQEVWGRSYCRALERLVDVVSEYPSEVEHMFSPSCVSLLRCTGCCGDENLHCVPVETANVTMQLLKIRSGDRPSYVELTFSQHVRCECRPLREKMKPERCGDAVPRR
# B1: HC 5/SLC 4 (antibody)
# chain 1: GQGTLVTVSSASTKGQPVLHQPPAMSSALGTTIRLTCTLRNDHDIGVYSVYWYQQRPGHPPRFLLRYFSQSDKSQGPQVPPRFSGSKDVARNRGYLSISELQPEDEAMYYCAMGARSRCWPRGFQSKHNSVTHVFGSGTQLTVLSQPKATPSVTLFPPSSEELQANKATLVCLMNDFYPGILTVTWKADGTPITQGVEMTTPSKQSNNKYAASSYLSLTPEQWRSRRSYSCQVMHEGSTVEKTVAPAECS
# chain 2: MSWAPVLLMLFVYCTGCGPQPVLHQPPAMSSALGTTIRLTCTLRNDHDIGVYSVYWYQQRPGHPPRFLLRYFSQSDKSQGPQVPPRFSGSKDVARNRGYLSISVTHVFGSGTQLTVLSQPKQVQLVQ
# B2: HC 5/SLC 5 (antibody)
# chain 1: B1 chain 1
# chain 2: MSWAPVLLMLFVYCTGCGPQPVLHQPPAMSSALGTTIRLTCTLRNDHDIGVYSVYWYQQRPGHPPRFLLRYFSQSDKSQGPQVPPRFSGSKDVARNRGYLSISVTHVFGSGTQLTVLSQPKAQVQLVQ
# B3: HC 7/SLC 7 (antibody)
# chain 1: GQGTLVTVSSASTKGPSQPVLHQPPAMSSALGTTIRLTCTLRNDHDIGVYSVYWYQQRPGHPPRFLLRYFSQSDKSQGPQVPPRFSGSKDVARNRGYLSISELQPEDEAMYYCAMGARSRCWPRGFQSKHNSVTHVFGSGTQLTVLSQPKATPSVTLFPPSSEELQANKATLVCLMNDFYPGILTVTWKADGTPITQGVEMTTPSKQSNNKYAASSYLSLTPEQWRSRRSYSCQVMHEGSTVEKTVAPAECS
# chain 2: MSWAPVLLMLFVYCTGCGPQPVLHQPPAMSSALGTTIRLTCTLRNDHDIGVYSVYWYQQRPGHPPRFLLRYFSQSDKSQGPQVPPRFSGSKDVARNRGYLSISVTHVFGSGTQLTVLSQPKATPQVQLVQ
# B4: HC 9/SLC 7 (antibody)
# chain 1: GQGTLVTVSSASTKGPSVFQPVLHQPPAMSSALGTTIRLTCTLRNDHDIGVYSVYWYQQRPGHPPRFLLRYFSQSDKSQGPQVPPRFSGSKDVARNRGYLSISELQPEDEAMYYCAMGARSRCWPRGFQSKHNSVTHVFGSGTQLTVLSQPKATPSVTLFPPSSEELQANKATLVCLMNDFYPGILTVTWKADGTPITQGVEMTTPSKQSNNKYAASSYLSLTPEQWRSRRSYSCQVMHEGSTVEKTVAPAECS
# chain 2: B3 chain 2
# B5: HC 10/SLC 3 (antibody)
# chain 1: GQGTLVTVSSASTKGPSVFPQPVLHQPPAMSSALGTTIRLTCTLRNDHDIGVYSVYWYQQRPGHPPRFLLRYFSQSDKSQGPQVPPRFSGSKDVARNRGYLSISELQPEDEAMYYCAMGARSRCWPRGFQSKHNSVTHVFGSGTQLTVLSQPKATPSVTLFPPSSEELQANKATLVCLMNDFYPGILTVTWKADGTPITQGVEMTTPSKQSNNKYAASSYLSLTPEQWRSRRSYSCQVMHEGSTVEKTVAPAECS
# chain 2: MSWAPVLLMLFVYCTGCGPQPVLHQPPAMSSALGTTIRLTCTLRNDHDIGVYSVYWYQQRPGHPPRFLLRYFSQSDKSQGPQVPPRFSGSKDVARNRGYLSISVTHVFGSGTQLTVLSQPQVQLVQ
# B6: HC 7/SLC 3 (antibody)
# chain 1: B3 chain 1
# chain 2: B5 chain 2
# B7: HC 8/SLC 5 (antibody)
# chain 1: GQGTLVTVSSASTKGPSVQPVLHQPPAMSSALGTTIRLTCTLRNDHDIGVYSVYWYQQRPGHPPRFLLRYFSQSDKSQGPQVPPRFSGSKDVARNRGYLSISELQPEDEAMYYCAMGARSRCWPRGFQSKHNSVTHVFGSGTQLTVLSQPKATPSVTLFPPSSEELQANKATLVCLMNDFYPGILTVTWKADGTPITQGVEMTTPSKQSNNKYAASSYLSLTPEQWRSRRSYSCQVMHEGSTVEKTVAPAECS
# chain 2: B2 chain 2
# B8: HC 8/SLC 2 (antibody)
# chain 1: B7 chain 1
# chain 2: MSWAPVLLMLFVYCTGCGPQPVLHQPPAMSSALGTTIRLTCTLRNDHDIGVYSVYWYQQRPGHPPRFLLRYFSQSDKSQGPQVPPRFSGSKDVARNRGYLSISVTHVFGSGTQLTVLSQQVQLVQ
# B9: HC 9/SLC 15 (antibody)
# chain 1: B4 chain 1
# chain 2: MSWAPVLLMLFVYCTGCGPQPVLHQPPAMSSALGTTIRLTCTLRNDHDIGVYSVYWYQQRPGHPPRFLLRYFSQSDKSQGPQVPPRFSGSKDVARNRGYLSISVTHVFGSGTQLTVLSQPKATPSVTGGGGSQVQLVQ
# B10: HC 9/SLC 2 (antibody)
# chain 1: B4 chain 1
# chain 2: B8 chain 2
# Target: T1, Placenta Growth Factor (PlGF), human
# Assay: ELISA
row,EC50 [nM],Binder
1,0.207,B1
2,0.256,B2
3,0.106,B3
4,0.063,B4
5,0.121,B5
6,0.182,B6
7,0.289,B7
8,0.227,B8
9,0.047,B9
10,0.211,B10

# Target: Hepatocyte Growth Factor (HGF), human (human, UniProt P14210 32-728)
# Assay: ELISA
# Hepatocyte Growth Factor (HGF), human, sequence (P14210 32-728): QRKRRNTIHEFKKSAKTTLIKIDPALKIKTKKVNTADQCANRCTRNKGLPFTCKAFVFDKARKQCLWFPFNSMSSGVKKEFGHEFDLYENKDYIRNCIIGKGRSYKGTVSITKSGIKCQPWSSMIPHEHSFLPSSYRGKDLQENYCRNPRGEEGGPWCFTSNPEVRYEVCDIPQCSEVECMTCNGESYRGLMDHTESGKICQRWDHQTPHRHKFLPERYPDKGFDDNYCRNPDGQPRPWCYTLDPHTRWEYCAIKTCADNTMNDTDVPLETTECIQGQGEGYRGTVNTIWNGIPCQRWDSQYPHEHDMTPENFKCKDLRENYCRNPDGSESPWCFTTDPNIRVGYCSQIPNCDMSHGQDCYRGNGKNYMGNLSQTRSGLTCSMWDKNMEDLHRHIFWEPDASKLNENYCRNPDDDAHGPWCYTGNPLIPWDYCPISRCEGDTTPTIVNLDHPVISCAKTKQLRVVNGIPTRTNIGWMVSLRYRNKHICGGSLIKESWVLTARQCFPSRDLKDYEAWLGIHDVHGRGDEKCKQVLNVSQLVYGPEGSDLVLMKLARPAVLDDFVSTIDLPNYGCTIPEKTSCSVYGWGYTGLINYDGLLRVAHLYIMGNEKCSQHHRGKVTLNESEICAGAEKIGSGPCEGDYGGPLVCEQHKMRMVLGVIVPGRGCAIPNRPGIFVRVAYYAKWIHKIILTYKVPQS
row,EC50 [nM],Binder
1,0.065,B1
2,0.063,B2
3,0.056,B3
4,0.059,B4
5,0.074,B5
6,0.067,B6
7,0.063,B7
8,0.059,B8
9,0.049,B9
10,0.062,B10
